From patent US20060269997A1 (Genentech, published 2006)
Substitutions are numbered along the chain they refer to.

B1: LK-VRB-10s (ligand, human, UniProt P15692-4 27-135, looked up)
chain: APMAEGGGQNHHEVVKFMDVYQRSSCHPIETLVDIFQEYPDEIEYIFKPSCVPLMRCGGCCNSEMRECVPTEESNITMQIMRIKPHQGQHIGEMSFLQHNKCECRPKKD
B2: LK-VRB-15s (ligand, human, UniProt P15692-4 27-135, looked up)
chain: B1 chain with Y21L
B3: LK-VRB-16s (ligand, human, UniProt P15692-4 27-135, looked up)
chain: B1 chain with Q22R
B4: LK-VRB-20s (ligand, human, UniProt P15692-4 27-135, looked up)
chain: B1 chain with Y21L, Q22R
B5: LK-VRB-21s (ligand, human, UniProt P15692-4 27-135, looked up)
chain: B1 chain with M18E, Y21L, Q22R, M65G, R66L
B6: LK-VRB-22s (ligand, human, UniProt P15692-4 27-135, looked up)
chain: B1 chain with M18E, Y21L, Q22R, S63D, R66L
B7: LK-VRB-23s (ligand, human, UniProt P15692-4 27-135, looked up)
chain: B1 chain with M18E, Y21L, Q22R, S63D, M65G
B8: LK-VRB-24s (ligand, human, UniProt P15692-4 27-135, looked up)
chain: B1 chain with M18E, Y21L, Q22R, R66L
B9: LK-VRB-19s (ligand, human, UniProt P15692-4 27-135, looked up)
chain: B1 chain with M18E, Q22R
notes: one of the two is probably misprinted
B10: LK-VRB-11s (ligand, human, UniProt P15692-4 27-135, looked up)
chain: B1 chain with M18E, Y21L, S25Y
B11: LK-VRB-12s (ligand, human, UniProt P15692-4 27-135, looked up)
chain: B1 chain with M18E, Q22R, S25Y
B12: LK-VRB-13s (ligand, human, UniProt P15692-4 27-135, looked up)
chain: B1 chain with M18E
B13: LK-VRB-14s (ligand, human, UniProt P15692-4 27-135, looked up)
chain: B1 chain with Y21L, Q22R, S25Y
B14: LK-VRB-17s (ligand, human, UniProt P15692-4 27-135, looked up)
chain: B1 chain with M18E, Y21L, Q22R, S25Y
B15: LK-VRB-25s (ligand, human, UniProt P15692-4 27-135, looked up)
chain: B1 chain with M18E, Y21L, Q22R, M65G
B16: LK-VRB-26s (ligand, human, UniProt P15692-4 27-135, looked up)
chain: B1 chain with M18E, Y21L, Q22R, S63D
B17: native VEGF (1-109) (ligand, human, UniProt P15692 207-315, looked up)
chain: B1 chain with S25Y, S63D, M65G, R66L
modifications: 125I-labeled where used as tracer
B18: Arg 105 (ligand)
chain: B1 chain with S25Y, S63D, M65G, R66L, R105A
B19: Asp 63** (ligand)
chain: B1 chain with S25Y, S63A, M65G, R66L
B20: Gln 22** (ligand)
chain: B1 chain with Q22A, S25Y, S63D, M65G, R66L
B21: Gln 79* (ligand)
chain: B1 chain with S25Y, S63D, M65G, R66L, Q79A
B22: Gln 89 (ligand)
chain: B1 chain with S25Y, S63D, M65G, R66L, Q89A
B23: Glu 64* (ligand)
chain: B1 chain with S25Y, S63D, E64A, M65G, R66L
B24: Glu 103 (ligand)
chain: B1 chain with S25Y, S63D, M65G, R66L, E103A
B25: Gly 65** (ligand)
chain: B1 chain with S25Y, S63D, M65A, R66L
B26: His 86** (ligand)
chain: B1 chain with S25Y, S63D, M65G, R66L, H86A
B27: Ile 43* (ligand)
chain: B1 chain with S25Y, I43A, S63D, M65G, R66L
B28: Ile 46* (ligand)
chain: B1 chain with S25Y, I46A, S63D, M65G, R66L
B29: Ile 83* (ligand)
chain: B1 chain with S25Y, S63D, M65G, R66L, I83A
B30: Ile 91 (ligand)
chain: B1 chain with S25Y, S63D, M65G, R66L, I91A
B31: Leu 66** (ligand)
chain: B1 chain with S25Y, S63D, M65G, R66A
B32: Lys 16 (ligand)
chain: B1 chain with K16A, S25Y, S63D, M65G, R66L
B33: Lys 48** (ligand)
chain: B1 chain with S25Y, K48A, S63D, M65G, R66L
B34: Lys 101 (ligand)
chain: B1 chain with S25Y, S63D, M65G, R66L, K101A
B35: Met 18** (ligand)
chain: B1 chain with M18A, S25Y, S63D, M65G, R66L
B36: Met 81** (ligand)
chain: B1 chain with S25Y, S63D, M65G, R66L, M81A
B37: Phe 17* (ligand)
chain: B1 chain with F17A, S25Y, S63D, M65G, R66L
B38: Phe 47** (ligand)
chain: B1 chain with S25Y, F47A, S63D, M65G, R66L

Target: T1, KDR (1-3) monomer (UniProt P35968 20-327, limits assumed, biotin-labeled in the ELISA of Example 8)
T1 construct: domain: domains 1 to 3; Genentech reagent; also called domains 1 to 3 of KDR
T1 sequence (P35968 20-327 limits assumed): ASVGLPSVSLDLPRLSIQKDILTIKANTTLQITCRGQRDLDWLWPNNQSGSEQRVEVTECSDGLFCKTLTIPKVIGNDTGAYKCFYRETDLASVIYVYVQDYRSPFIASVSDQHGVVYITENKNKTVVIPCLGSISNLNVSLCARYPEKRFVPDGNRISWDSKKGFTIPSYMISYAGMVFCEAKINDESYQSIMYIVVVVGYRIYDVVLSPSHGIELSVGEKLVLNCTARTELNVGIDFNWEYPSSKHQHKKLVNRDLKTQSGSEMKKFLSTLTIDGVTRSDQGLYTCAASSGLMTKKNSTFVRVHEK
Test: competition ELISA vs biotinylated VEGF (8-109), soluble KDR (1-3) captured by MAKD5
Description: Receptor binding assays were performed in 96-well immunoplates (Maxisorp, Nunc-Immunoplate, Nalge Nunc International, Rochester, N.Y.). Each well was coated with 100 μl of a solution containing 8 μg/ml of a monoclonal antibody to KDR known as MAKD5 (Genentech, South San Francisco, Calif.) in 50 mM carbonate buffer at pH 9.6 and incubated at 4° C. overnight. The supernatant was discarded, the wells were washed three times in washing buffer (0.05% Tween 20 in PBS), and the plate was blocked (150 μl per well) with block buffer (0.5% BSA, 0.01% thimerosal in PBS) at room temperature for one hour. The supernatant was discarded, and the wells were washed.
Aliquots of this mixture (100 μl) were added to the precoated microtiter wells and the plate was incubated for 1 hour at room temperature. […] The wells were then incubated with 3,3′, 5,5′-tetramethyl benzidine (0.2 gram/liter; Kirkegaard & Perry Laboratories, Gaithersburg, Md.) for about 10 minutes at room temperature. Absorbance was read at 450 nm on a Vmax plate reader (Molecular Devices, Menlo Park, Calif.).
Titration curves were fit with a four-parameter nonlinear regression curve-fitting program (KaleidaGraph, Synergy Software, Reading, Pa.).

Point of comparison: B7, IC50 11 nM. Against it:
- B1 — 22-fold lower, 0.5 nM
- B2 — 5.5-fold lower, 2 nM
- B3 — 18-fold lower, 0.6 nM
- B4 — 5.5-fold lower, 2 nM
- B5 — 3.7-fold lower, 3 nM
- B6 — 2.8-fold lower, 4 nM
- B8 — within 1.5-fold, 10 nM
- B9 — 1.6-fold lower, 7 nM
- B10 — 5.5-fold lower, 2 nM
- B11 — 28-fold lower, 0.4 nM
- B12 — within 1.5-fold, 14 nM
- B13 — 22-fold lower, 0.5 nM
- B14 — 3.7-fold lower, 3 nM
- B15 — 2.8-fold lower, 4 nM
- B16 — 2.1-fold higher, 23 nM

Point of comparison: B7, “Relative Binding Affinity (ratio to native VEGF (8-109))” value 11 fold. Against it:
- B1 — lower, 0.5 fold
- B2 — lower, 2 fold
- B3 — lower, 0.6 fold
- B4 — lower, 2 fold
- B5 — lower, 3 fold
- B6 — lower, 4 fold
- B8 — lower, 10 fold
- B9 — lower, 7 fold
- B10 — lower, 2 fold
- B11 — lower, 0.4 fold
- B12 — higher, 14 fold
- B13 — lower, 0.5 fold
- B14 — lower, 3 fold
- B15 — lower, 4 fold
- B16 — higher, 23 fold

Target: T1, KDR (1-3) monomer
Test: competition ELISA: plate coated with VEGF (8-109), 100 pM biotin-labeled KDR(1-3), serial dilutions of the competing VEGF (Example 8)
Description: (§1) After 1 hour, the plates were washed, and the bound protein stained with streptavidin horseradish peroxidase conjugate (Pharmacia) and assayed. Affinities were estimated as IC₅₀ values: the concentration of KDR(1-3) or Flt(1-3) that blocked 50% of protein binding.

For B17, the IC50 was 10 nM.

Point of comparison: B38, “fold reduction in binding (IC50 variant / IC50 VEGF(1-109))” value 5 fold. Against it:
- B18 — lower, 1 fold
- B19 — lower, 1 fold
- B20 — higher, 6 fold
- B21 — higher, 55 fold
- B22 — lower, 1 fold
- B23 — higher, 10 fold
- B24 — lower, 1 fold
- B25 — lower, 1 fold
- B26 — lower, 2 fold
- B27 — higher, 21 fold
- B28 — higher, 96 fold
- B29 — higher, 89 fold
- B30 — lower, 1 fold
- B31 — lower, 1 fold
- B32 — lower, 1 fold
- B33 — lower, 1 fold
- B34 — lower, 1 fold
- B35 — the same, 5 fold
- B36 — higher, 9 fold
- B37 — higher, 45 fold

Target: T2, Flt-1 (1-3) monomer (UniProt P17948 27-331, limits assumed, biotin-labeled in the ELISA of Example 8)
T2 construct: domain: domains 1 to 3; Genentech reagent; also called Flt(1-3); domains 1 to 3 of Flt-1
T2 sequence (P17948 27-331 limits assumed): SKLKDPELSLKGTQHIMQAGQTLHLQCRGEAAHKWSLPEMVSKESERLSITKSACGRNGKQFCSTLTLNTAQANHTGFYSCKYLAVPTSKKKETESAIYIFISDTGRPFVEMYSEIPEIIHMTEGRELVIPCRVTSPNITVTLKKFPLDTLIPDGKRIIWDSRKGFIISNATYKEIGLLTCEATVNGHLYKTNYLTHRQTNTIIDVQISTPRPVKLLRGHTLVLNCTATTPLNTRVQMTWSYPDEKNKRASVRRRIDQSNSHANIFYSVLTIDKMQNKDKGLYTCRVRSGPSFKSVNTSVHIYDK
Test: competition ELISA: plate coated with VEGF (8-109), 100 pM biotin-labeled Flt1(1-3), serial dilutions of the competing VEGF (Example 8)
Description: as §1

With B17 the IC50 was 6 nM.

Point of comparison: B38, “fold reduction in binding (IC50 variant / IC50 VEGF(1-109))” value 3 fold. Against it:
- B18 — lower, 1 fold
- B19 — higher, 8 fold
- B20 — higher, 15 fold
- B21 — the same, 3 fold
- B22 — lower, 1 fold
- B23 — higher, 5 fold
- B24 — lower, 1 fold
- B25 — lower, 1 fold
- B26 — lower, 1 fold
- B27 — the same, 3 fold
- B28 — higher, 4 fold
- B29 — higher, 7 fold
- B30 — lower, 1 fold
- B31 — higher, 10 fold
- B32 — lower, 1 fold
- B33 — lower, 1 fold
- B34 — lower, 1 fold
- B35 — higher, 9 fold
- B36 — higher, 5 fold
- B37 — higher, 34 fold
